The values below come from patent publication US20170306044A1 (ENGMAB, published 2017).

Assay [1] concerns the target T1, human ROR1 (tyrosine-protein kinase transmembrane receptor ROR1) (human, UniProt Q01973 30-937).
T1 construct: whole, on cells; the assays used the protein on cells
The assay can be described thus: flow cytometry on PA-1 ovarian cancer cells (MFI against antibody concentration). Here is the method:
(§1) a) The level of expression of ROR1 is measured on human ovarian cancer cell lines by flow cytometry including PA-1, MCAS, EFO-21, COLO-704, SW-626, KURAMOCHI, OVSAHO, SNU-119, COV362, OVCAR-4, COV318, TYK-nu, ON/KATE, CAOV-4, OAW28, CAOV-3, 59M, ONCO-DG-1, OVCAR-3. OVCAR-5, ES-2, COV-504, OV-90, RMUG-S, COV-644, SNU-840, OVISE, OAW42, OVTOKO, OVMANA, COV-434, OV56, SK-OV-3N2780, IGROV-1, and/or TOV-21G. Briefly, cells are harvested, washed, counted for viability, resuspended at 50,000 cells/well of a 96-well round bottom plate and incubated with Alexa488-labeled anti human ROR1 antibody for 30 min at 4° C. All ROR1 and isotype control antibodies are titrated and analyzed in final concentration range between 0.01-100 nM. […] At the end of incubation time, cells are centrifuged (5 min. at 350 x g), washed twice with FACS buffer, resuspended in 100 u.l FACS buffer and analyzed on a CantoII device running FACS Diva software. Expression of ROR1 is then quantitified as the median fluorescence intensity (MFI) and graphs showing the MFI in function of ROR1 antibody concentrations are plotted. EC50 values are then measured using Prism software (GraphPad). […] The calculated EC50s for binding of ROR1 Mab1 to SK-OV-3 are extrapolated values and may be underestimated. […]
For orientation: Flow cytometry measures light scatter and fluorescence of single cells or particles in a stream.

In assay [2] the target is T1, human ROR1 (tyrosine-protein kinase …). Kind of assay: flow cytometry, maximum MFI at 10 µg/mL antibody, PA-1 against SK-OV-3 cells. Here is the method: as §1
Assay [3] shares this target. The assay can be described thus: flow cytometry on SK-OV-3 ovarian cancer cells (MFI against antibody concentration); extrapolated value. Here is the method: as §1

“And” between values parts separate entries of the source, which are not always exact repeats. Equal values may be shown once.

Broadly, the EC50 is the concentration needed to bring the measured effect to its halfway point.

T1 sequence (Q01973 30-937): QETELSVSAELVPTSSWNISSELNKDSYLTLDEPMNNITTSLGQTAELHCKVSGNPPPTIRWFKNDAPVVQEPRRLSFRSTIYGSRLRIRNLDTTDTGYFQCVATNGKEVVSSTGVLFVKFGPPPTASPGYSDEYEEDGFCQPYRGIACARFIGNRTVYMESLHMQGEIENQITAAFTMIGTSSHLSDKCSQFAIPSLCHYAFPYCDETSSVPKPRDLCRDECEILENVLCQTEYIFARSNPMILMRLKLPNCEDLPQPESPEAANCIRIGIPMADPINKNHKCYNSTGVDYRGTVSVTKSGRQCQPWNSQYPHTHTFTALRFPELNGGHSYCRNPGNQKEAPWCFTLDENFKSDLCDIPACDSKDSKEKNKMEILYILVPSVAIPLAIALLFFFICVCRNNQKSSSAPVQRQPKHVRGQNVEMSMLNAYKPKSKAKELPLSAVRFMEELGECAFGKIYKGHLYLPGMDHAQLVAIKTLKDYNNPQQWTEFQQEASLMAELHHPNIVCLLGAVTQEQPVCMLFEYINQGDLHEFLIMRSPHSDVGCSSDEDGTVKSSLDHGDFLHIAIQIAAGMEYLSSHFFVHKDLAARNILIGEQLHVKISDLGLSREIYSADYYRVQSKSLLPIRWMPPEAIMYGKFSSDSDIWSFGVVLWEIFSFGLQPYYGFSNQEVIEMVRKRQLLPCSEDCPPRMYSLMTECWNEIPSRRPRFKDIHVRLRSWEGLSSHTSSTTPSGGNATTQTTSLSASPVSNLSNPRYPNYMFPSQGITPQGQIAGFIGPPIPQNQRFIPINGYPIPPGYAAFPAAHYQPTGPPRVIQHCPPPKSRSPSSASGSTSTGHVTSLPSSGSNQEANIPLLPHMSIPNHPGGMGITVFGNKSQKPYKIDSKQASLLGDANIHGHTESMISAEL

B1: ROR1 Mab1 IgG (anti-ROR1 antibody MAB1) (antibody, V domains shown)
VH: QEQLVESGGRLVTPGGSLTLSCKASGFDFSAYYMSWVRQAPGKGLEWIATIYPSSGKTYYATWVNGRFTISSDNAQNTVDLQMNSLTAADRATYFCARDSYADDGALFNIWGPGTLVTISS
VL: ELVLTQSPSVSAALGSPAKITCTLSSAHKTDTIDWYQQLQGEAPRYLMQVQSDGSYTKRPGVPDRFSGSSSGADRYLIIPSVQADDEADYYCGADYIGGYVFGGGTQLTVTG
notes: also called ROR1 IgG; Mab1 anti-ROR1 antibodies
Regarding B1, the EC50 was 0.87 nM and 0.13 µg/mL in assay [1]; ~4.62 nM and ~0.69 µg/mL in assay [3]. Besides, the “maximum MFI on PA-1 cells relative to SK-OV-3 cells” value in assay [2] was roughly 3 fold.
